Consider one protein from paper doi:10.1101/2021.09.21.461191v4.

Substrate in the data set: OC[C@@H](O)[C@H](O)[C@@H](O)CO
Briefly: cells, lysate or membranes. Conditions: proton symport, membrane voltage -40 mV, external pH 5.5.

B1: BvPMT5a (Beta vulgaris subsp. vulgaris) (protein)
chain: MSEGTNKAMSDPPPTTASKVIADFDPLKKPPKRNKFAFACATLASMTSVLLGYDIGVMSGAIIYLKEDWHISDTQIGVLVGILNIYCLFGSFAAGRTSDWIGRRYTIVLAGAIFFVGALLMGFATNYAFLMVGRFVTGIGVGYALMIAPVYTAEVSPASSRGFLTSFPEVFINAGILLGYISNLAFSSLPTHLSWRFMLGIGAIPSIFLAIGVLAMPESPRWLVMQGRLGDAKKVLNRISDSPEEAQLRLSEIKQTAGIPAECDEDIYKVEKTKIKSGNAVWKELFFNPTPAVRRAVIAGIGIHFFQQASGIDAVVLYSPRIFQSAGITNARKQLLATVAVGVVKTLFILVATFQLDKYGRRPLLLTSVGGMIIAILTLAMSLTVIDHSHHKITWAIALCITMVCAVVASFSIGLGPITWVYSSEVFPLRLRAQGTSMGVAVNRVVSGVISIFFLPLSHKITTGGAFFLFGGIAIIAWFFFLTFLPETRGRTLENMHELFEDFRWRESFPGNKSNNDENSTRKQSNGNDKSQVQLGETTTSTTVTNDNH
On to B1, for which the Km (usually the concentration of substrate that gives half-maximal velocity) was 2500 µM.
